B1: DDR1 mutant [human] / itself (parent)
chain: DADMKGHFDPAKCRYALGMQDRTIPDSDISASSSWSDSTAARHSRLESSDGDGAWCPAGSVFPKEEEYLQVDLQRLHLVALVGTQGRHAGGLGKEFSRSYRLRYSRDGRRWMGWKDRWGQEVISGNEDPEGVVLKDLGPPMVARLVRFYPRADRVMSVCLRVELYGCLWRDGLLSYTAPVGQTMYLSEAVYLNDSTYDGHTVGGLQYGGLGQLADGVVGLDDFRKSQELRVWPGYDYVGWSNHSFSSGYVEMEFEFDRLRAFQAMQVHSNNMHTLGARLPGGVECRFRRGPAMAWEGEPMRHNLGGNLGDPRARAVSVPLGGRVARFLQCRFLFAGPWLLFSEISFISDVVNNSSPALGGTFPPAPWWPPGPPPTNFSSLELEPRGQQPVAKAEGSPTAILIGCLVAIILLLLLIIALMLWRLHWRRLLSKAERRVLEEELTVHLSVPGDTILINNRPGPREPPPYQEPRPRGNPPHSAPCVPNGSALLLSNPAYRLLLATYARPPRGPGPPTPAWAKPTNTQAYSGDYMEPEKPGAPLLPPPPQNSVPHYAEADIVTLQGVTGGNTYAVPALPPGAVGDGPPRVDFPRSRLRFKEKLGEGQFGEVHLCEVDSPQDLVSLDFPLNVRKGHPLLVAVKILRPDATKNARNDFLKEVKIMSRLKDPNIIRLLGVCVQDDPLCMITDYMENGDLNQFLSAHQLEDKAAEGAPGDGQAAQGPTISYPMLLHVAAQIASGMRYLATLNFVHRDLATRNCLVGENFTIKIADFGMSRNLYAGDYYRVQGRAVLPIRWMAWECILMGKFTTASDVWAFGVTLWEVLMLCRAQPFGQLTDEQVIENAGEFFRDQGRQVYLSRPPACPQGLYELMLRCWSRESEQRPPFSQLHRFLAEDALNTV

The variants in this experiment derive from B1. Kind of experiment: disulfide cross-linking, nonreducing SDS-PAGE and Western blotting with anti-DDR1 antibodies. The note with it: transiently transfected HEK293 cells, lysed in 30 mM NEM, read off a plot.
[1] abbreviates: 10 μg/ml collagen I for 90 min at 37 °C.

With chain 1 L401C, the screen value is 61% under setting [1] and 60% (unstimulated).
Consider chain 1 L405C C404A, for which the screen value was found to be 4.5% under setting [1] and 3.5% (unstimulated).
In the case of chain 1 C404A, for the setting “unstimulated”, the screen value is 4.5%.
Regarding chain 1 K392C, the screen value is 76% under setting [1] and 81% (unstimulated).
As for chain 1 T398C, the screen value reads like this: under setting [1], 93%; (unstimulated) 94%.
Consider chain 1 G403C, for which the screen value stood at 30% under setting [1] and 32% (unstimulated).
As for chain 1 I402C, the screen value runs as follows: under setting [1], 62%; (unstimulated) 65%.
The corresponding values for chain 1 A391C are 80% and 81%.
Regarding chain 1 V390C, the screen value is, setting by setting: under setting [1], 82%; (unstimulated) 83%.
The corresponding values for chain 1 L405C are 3.5% and 5%.
With chain 1 G403C C404A, the screen value reads like this: under setting [1], 35%; (unstimulated) 37%.
On to chain 1 A393C, for which the screen value stood at 81% under setting [1] and 84% (unstimulated).
Turning to chain 1 V390C C404A, the screen value under setting [1] stood at 85%.
For the variant chain 1 G395C, for the setting “unstimulated”, the screen value was 73%.
Consider chain 1 P397C, for which the screen value was 81% under setting [1] and 82% (unstimulated).
On to chain 1 A399C, for which the screen value (10 μg/ml collagen I for 90 min at 37 °C, dimeric plus higher oligomeric forms) was determined as 59%; the screen value under setting [1] came to 59%; the screen value (unstimulated, dimeric plus higher oligomeric forms) came out at 61%; the screen value (unstimulated) came out at 61%.
Consider chain 1 I400C, for which the screen value reads like this: under setting [1], 56%; (unstimulated) 60%.
The corresponding values for chain 1 E394C C404A are 81% and 83%.
Regarding chain 1 E394C, the screen value is 72% under setting [1] and 75% (unstimulated).
As to chain 1 S396C, the screen value by setting is: under setting [1], 82%; (unstimulated) 84%.

The values are drawn from publication PMC4036362, “Normal Activation of Discoidin Domain Receptor 1 Mutants with Disulfide Cross-links, Insertions, or Deletions in the Extracellular Juxtamembrane Region” (The Journal of Biological Chemistry, 2014).
